Target: human IFNγ (human) (UniProt P01579)
Assay: cell-based or functional assay

Sequence of UniProt P01579 (P01579 24-166 limits assumed): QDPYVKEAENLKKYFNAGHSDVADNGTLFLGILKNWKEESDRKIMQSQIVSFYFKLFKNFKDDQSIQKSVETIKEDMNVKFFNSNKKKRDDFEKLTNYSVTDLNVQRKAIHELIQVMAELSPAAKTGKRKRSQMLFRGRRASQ

**Q.** Which inhibition of IFNγ signaling at dilution 0.5 of supernatant, HEK-Blue IFNγ reporter cells does the source give for “Amg-HL, anti-IFNγ scFv from AMG811 (heavy chain variable region to light chain variable region)” here?
**A.** The inhibition of IFNγ signaling at dilution 0.5 of supernatant, HEK-Blue IFNγ reporter cells was 80%.
